Measurements reported in PMC11856660 (PLOS Pathogens, 2025).

Target: HCoV-229E nsp15 protein, H250A mutant (recombinant, hexameric) (human coronavirus 229E (HCoV-229E))
Test: […] (25 mM HEPES pH 8, 300 mM NaCl, 10% glycerol, 1 mM TCEP); […]; 20 °C; […]

HCoV-229E nsp15 protein, H250A mutant (recombinant, hexameric) (enzyme)
percent hexameric: > 98%
stoichiometry N: 6
